Measurements from article PMC9291269.
Like-named read-outs stand apart in the source and are kept apart here.

T1: recombinant human serum amyloid A1 (rSAA1) (human), P0DJI8
T1 chain: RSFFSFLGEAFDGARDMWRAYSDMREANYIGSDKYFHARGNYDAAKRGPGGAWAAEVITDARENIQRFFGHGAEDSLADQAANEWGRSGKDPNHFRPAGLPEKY

B1: recombinant human serum amyloid A1 (rSAA1), P0DJI8 19-122 (natural protein)
chain: T1 chain

Assays:
[1] = biological target: SAA1 secreted by BEAS-2B cells (lipid-free, in culture supernatant) (human (endogenous in BEAS-2B)); assay: immunoblot of HDL-depleted cell culture supernatants
[2] = biological target: SAA1 secreted by BEAS-2B cells (lipid-free, in culture supernatant) (human (endogenous in BEAS-2B)); assay: as above; remark: listed apart in the source
[3] = biological target: T1, recombinant human serum amyloid A1 …; assay: immunoblot of cell culture supernatants; details: remark: other sources report otherwise
[4] = biological target: T1, recombinant human serum amyloid A1 …; assay: immunoblot of cell culture supernatants; details: remark: other sources report otherwise

Row | Molecule | stoichiometry N [1] | stoichiometry N [2] | stoichiometry N [3] | stoichiometry N [4]
1 | SAA1 secreted by BEAS-2B cells (lipid-free, in culture supernatant) (natural protein) | 6 | 2 |  | 
2 | B1 |  |  | 2 | 6
